Assay results: the RNAGym collection of RNA variant scans (doi:10.1073/pnas.2313332121)

B1: TPR t1 (parent)
chain: GACCAAUCUGCCCUCAGAGCUCGAGAACAUCUUCGGAUGCAGAGGAGGCAGGCUUCGGUGGCGCGAUAGCGCCAACGUCCUCAACCUCCAAUGCAUCCCACCACAUGAUGAUGCCUGAAGAGCCUUGGUUUUUUG

Variants of: B1
Experiment: polymerase ribozyme fitness, log enrichment relative to wild type (log ratio); higher = more active; in vitro selection for triplet polymerase activity
Procedure, shortened: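 The heterodimeric triplet polymerase ribozyme's subunits were each mutagenized into PCR-built libraries and transcribed. Every library was selected once, in triplicate, by annealing with a biotinylated primer, the partner subunit and triplets, incubating frozen at −7 °C, gel-excising extended constructs, capturing on streptavidin beads and running RT-PCR. Input and output libraries were Illumina-sequenced, with genotypes kept only at ≥10 input reads and ≥1 read per output. Fitness, from inverse-variance-weighted replicate averages, is the base-2 logarithm of genotype enrichment over wild-type enrichment.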

Variant	polymerase ribozyme fitness (log ratio)
G35A G58A U78A C104U	-4.33
G36U C72U	-1.51
G35A G61C A111C	-5.93
G35U C64U	-5.09
G35C G61C C79G	-6.99
G35A U78A	-4.53
G36A G42U C88A G113U	-3.82
G35U C49A C64U	-6.12
G36C A66C U125G	-2.72
G36U G44A G47A G48U G69U C82G A121C	0.343
G36C U126G	-3.08
G36A C72A C97U A121G	1.78
G35U G113C G120A G135C	-5.82
G36A U54A U112A	1.22
G36C C76U C123U	-0.606
G35U G45A	-5.37
G36A G52A A66G C79G	-2.84
G35U	-4.66
G35A	-3.65
G35C	-4.55
G36A C86U	-0.488

Variant	polymerase ribozyme fitness (log ratio)
G35U G61A C85A C114G U131G	-6.32
G36U A68C C70U U87A G117U	-5.69
G35A C124G	-2
G36A A83C	-1.41
G36U C73G U106A G127C	-2.55
G36A G93C	-1.47
G35U G117A	-5.15
G35A C53G C70A C104U G117U C124G U126G	-6.92
G36U G60C A100U	-2.77
G36A G47C C124U	-0.979
G35A C101G	-5.52
G36U G51A G60U U112C C123U	-1.16
G36U A83U	-1.49
C34U G120C	-3.96
C34U U112G	-3.89
C34U U112C	-2.16
G35C G61A U106G U112A	-3.75
G36C C98U U129A	-3.81
G35A C85U C94A	-6.51
G36U C80U C85U C98U C102A A103U A105C U106G C115G	-5.37
G36C G60U	-0.402

Variant	polymerase ribozyme fitness (log ratio)
G35A C123A	-3.41
G36A A41U C56G G57U	-3.93
G35U C64U U78C	-5.42
G35A U55G	-4.9
G35A C56A C123G G128C	-5.64
G36C C76A C79U A121U	1.44
G36U U38A G48U G61U G63A C97U C115U	-5.64
G36U A74G A105U	-3.55
G35C C49A U112G	-6.16
G36A A46U A83G	-3.05
G36U G60A	-1.61
G35A U131C	-6.04
G36C C64U G113U	-3.55
G36C G113C	-2.78
G36A A46U G60C C124U	-0.384
G36U C56G C82U G113A	-2.31
G36U C101U U116C	-2.19
G36U U55C A66C	-3.51
G35C C123G	-2.8
G36U C73U A119U	-1.63
G35A G58C G60U	-5.24

Variant	polymerase ribozyme fitness (log ratio)
G36A C88U	-0.885
G36U G44U	-2.24
G35U A84C	-5.41
G36A A43G A105U U112C	-5.32
G35U C101A G113C	-6.29
G36U G44U U112G	-4.18
G36C G44U A90C C102U	-5.65
G36A G52C C70G	-5.49
G35U C123G	-2.32
G36U G71A	-1.86
G36C G47U G110C	-5.66
G36U G39C	-1.56
G36C C40A C101A C104U A121U	-1.4
G35A A74U C101U	-4.34
G36C C49A C79U C101G	-2.06
G36A U129G	-2.39
G35U G48C A121C	-3.96
G36A C73A	-1.1
G36A C73U	-0.561
G35U A119U A121C C124A	-4.47
